From publication PMC11564117, “Control of mitophagy initiation and progression by the TBK1 adaptors NAP1 and SINTBAD” (Nature Structural & Molecular Biology, 2024)

Target: T1, SINTBAD–mCherry (UniProt A7MCY6 1-615)
T1 construct: the legend says SINTBAD-mCherry; also called mCherry–SINTBAD; similar to NAP1 TBK1 adaptor; source: Sf9 insect cells, purified (GST-batch protocol); not shown: mCherry, C-terminal, kept
Test: microscopy-based bead assay; Figs. 5b, 7d, 7f, Extended Data Fig. 9b: GST–4×Ub on glutathione beads; OPTN (mCherry-tagged or unlabeled) and GFP–TBK1 250 nM; NAP1, MBP–NAP1 or SINTBAD–mCherry 100 nM to 10 µM; unlabeled NDP52 250 nM where indicated; 25 mM Tris-HCl pH 7.4, 150 mM NaCl, 1 mM DTT; Fig. 5b without ATP, Fig. 7f with or without ATP/MgCl2; 30 min; confocal imaging
Conditions: both partners purified

T1 sequence (A7MCY6 whole entry): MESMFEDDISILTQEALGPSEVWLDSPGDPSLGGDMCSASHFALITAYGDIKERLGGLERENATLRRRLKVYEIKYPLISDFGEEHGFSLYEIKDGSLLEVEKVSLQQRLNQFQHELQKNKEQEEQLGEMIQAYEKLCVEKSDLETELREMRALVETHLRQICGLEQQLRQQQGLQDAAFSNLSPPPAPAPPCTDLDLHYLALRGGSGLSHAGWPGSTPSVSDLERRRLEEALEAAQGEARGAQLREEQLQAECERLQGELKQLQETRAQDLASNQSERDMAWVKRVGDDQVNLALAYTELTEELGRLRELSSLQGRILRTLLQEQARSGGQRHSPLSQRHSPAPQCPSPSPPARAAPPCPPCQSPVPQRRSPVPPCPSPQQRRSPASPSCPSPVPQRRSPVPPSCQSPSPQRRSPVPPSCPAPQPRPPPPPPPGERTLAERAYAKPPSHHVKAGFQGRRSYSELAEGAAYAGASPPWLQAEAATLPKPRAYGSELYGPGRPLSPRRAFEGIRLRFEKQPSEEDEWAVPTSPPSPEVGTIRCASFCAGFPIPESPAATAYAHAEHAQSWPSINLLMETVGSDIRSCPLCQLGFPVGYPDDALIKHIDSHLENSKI

- binding result: binds
B1: NDP52 (unlabeled) (natural protein, human, UniProt Q13137 1-446, looked up)
chain: MEETIKDPPTSAVLLDHCHFSQVIFNSVEKFYIPGGDVTCHYTFTQHFIPRRKDWIGIFRVGWKTTREYYTFMWVTLPIDLNNKSAKQQEVQFKAYYLPKDDEYYQFCYVDEDGVVRGASIPFQFRPENEEDILVVTTQGEVEEIEQHNKELCKENQELKDSCISLQKQNSDMQAELQKKQEELETLQSINKKLELKVKEQKDYWETELLQLKEQNQKMSSENEKMGIRVDQLQAQLSTQEKEMEKLVQGDQDKTEQLEQLKKENDHLFLSLTEQRKDQKKLEQTVEQMKQNETTAMKKQQELMDENFDLSKRLSENEIICNALQRQKERLEGENDLLKRENSRLLSYMGLDFNSLPYQVPTSDEGGARQNPGLAYGNPYSGIQESSSPSPLSIKKCPICKADDICDHTLEQQQMQPLCFNCPICDKIFPATEKQIFEDHVFCHSL
notes: NDP52 (CALCOCO2), human cDNA in a pGST2 vector with N-terminal GST tag and TEV site; Called 'unlabeled NDP52' in the bead assays; also called nuclear dot protein 52; CALCOCO2; source: E. coli Rosetta pLysS, purified (GST-batch protocol)
